What is called Ki is the dissociation constant of the complex between target and ligand, obtained from inhibition or displacement.

Bridge positions count the residues as written; N and C are the ends. Square brackets hold non-standard residues; d marks the D form. Ends that are not written are not given here. Lys(N3) = [N-]=[N+]=NCCCC[C@H](N)C(=O)O; Pra = C#CC[C@H](N)C(=O)O

Test [1] addresses T1, biotinylated recombinant human αvβ6 integrin (human, UniProt P06756 31-1048; P18564 22-709, biotinylated (which chain is not stated) | biotinylated (which chain is not stated)).
T1 construct: integrin alpha-V, human, recombinant; integrin beta-6, human, recombinant; Detected by HRP-labeled streptavidin through the biotin; also called biotinylated-αvβ6; source: bought: Acros CROBiosystems (cat. IT6-H82E4)
The experiment in a line: ELISA; competitive integrin binding assay (taken as Assay 3): plates coated with human latent TGFβ1; various amounts of peptide 5a or 5a-HSA with 10 ng/ml biotinylated αvβ6 or αvβ8 in 20 mM Tris-HCl pH 7.4, 150 mM sodium chloride, 1 mM manganese chloride, 0.05% Tween-20, 0.5% BSA, 1 h; HRP-labeled streptavidin. The note with it: both partners purified. (In general: An ELISA detects its analyte on a solid surface through an enzyme-linked reagent.)

In test [2] the target is T2, biotinylated recombinant human αvβ8 integrin (human, UniProt P06756 31-1048; P26012 43-684, biotinylated (which chain is not stated) | biotinylated (which chain is not stated)).
T2 construct: integrin alpha-V, human, recombinant; integrin beta-8, human, recombinant; Detected by HRP-labeled streptavidin through the biotin; also called biotinylated-αvβ8; source: bought: Acros CROBiosystems (cat. IT8-H82W5)
The test is described as above. Conditions: both partners purified.

For CFETLRGDLRILSILR[Pra]QNL[Lys(N3)]KELQD-NH2 (triazole 17-21) [peptide 5a], the Ki was 1.7 nM in test [1] and 3.9 nM in test [2].

(Values after paper PMC11889887, “Blockade of αvβ6 and αvβ8 integrins with a chromogranin A-derived peptide inhibits TGFβ activation in tumors and suppresses tumor growth” (Journal of Experimental & Clinical Cancer Research : CR, 2025).)
